The supplement of paper PMC10567573

B1: DVL3 (parent)
chain: HPDPAPFCADNPSELPPPMERTGG
B2: GNB5 (parent)
chain: DINSVRYYPSGDAFASGSDDATCR

Variants of: B1
Test: protein stability index of a GFP-peptide fusion (GPS, HEK-293T) (PSI 1-6); higher = more stable
Conditions: c terminus: a fixed tail appended
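Note: lentivirally expressed fusions sorted by FACS into six bins by GFP to DsRed ratio, PSI derived from sequencing read proportions per bin multiplied by bin number.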

Protein stability index, by site and new letter:
D3: R 4.13 | M 3.42 | V 3.39
H1: R 4.98 | E 5.45 | K 5.2 | M 4.93 | L 5.58
P2: F 4.57 | H 3.19 | L 1.93 | Y 3.84 | S 3.51 | T 2.27 | W 3.03 | Q 1.54 | D 5.12 | A 2.08 | G 5.4 | M 2.04 | C 2.28 | E 4.46 | N 4.74 | R 4.33 | K 5.1

Variants of: B2
Test: as above
Conditions: c terminus: a fixed tail appended

Protein stability index of substitutions, site by site:
S16: C 3.66 | N 4.15 | D 4.27 | F 3.46 | Y 3.55 | A 4.04 | T 3.49 | H 3.84 | I 3.27 | G 4.28 | R 3.77 | W 3.15 | P 3.88 | M 3.29 | K 3.34 | E 4.55 | V 3.84 | L 3.58 | Q 3.78
G17: I 3.21 | R 3.65 | F 2.93 | S 3.84 | V 3.65 | N 3.68 | W 3.07 | D 4.4 | P 4.05 | C 3.66 | T 3.63 | Y 3.29 | E 4.34 | K 3.65 | H 3.4 | L 3.12 | M 3.29 | Q 3.75 | A 3.74
R24: G 4.59 | D 4.32 | Y 3.99 | H 4.29 | T 4.41 | I 3.77 | E 4.71 | C 4.06 | S 4.12 | A 4.03 | P 4.3 | W 3.53 | F 3.51 | M 4.03 | Q 4.68 | N 3.59 | V 3.92 | K 4.19 | L 3.63
A21: Q 3.98 | F 3.3 | C 3.82 | H 3.62 | E 4.38 | W 2.79 | S 3.91 | V 3.72 | M 3.44 | I 3.44 | G 3.63 | K 3.8 | N 4.16 | P 4.16 | R 3.63 | D 4.34 | Y 3.19 | T 3.79 | L 3.82
S18: D 4.24 | V 3.33 | P 3.74 | E 4.43 | Y 3.43 | R 3.12 | I 3.56 | G 4.48 | A 3.35 | C 3.88 | N 4 | Q 3.81 | T 4.06 | L 3.55 | H 3.82 | W 3.02 | K 3.55 | M 3.49 | F 3.26
C23: R 3.92 | T 4.55 | P 4.14 | W 3.14 | Y 3.9 | N 3.95 | L 3.95 | K 4.41 | M 3.62 | A 4.53 | E 4.74 | H 4.3 | D 4.48 | S 4.05 | I 4 | G 4.39 | Q 4.13 | V 3.87 | F 3.95
A15: Q 3.86 | M 3.57 | V 3.91 | D 4.16 | E 4.09 | H 3.7 | S 3.66 | R 2.99 | F 2.83 | W 3.29 | P 3.92 | K 3.58 | N 4.12 | T 3.63 | G 3.51 | L 3.73 | Y 3.23 | I 3.43 | C 3.66
D20: K 3.06 | V 3.27 | G 3.61 | H 3.04 | F 2.5 | I 3.14 | Y 2.6 | N 3.42 | E 3.94 | P 3.4 | R 3.2 | W 2.16 | T 3.58 | Q 3.69 | S 3.47 | A 3.44 | L 3.15 | C 3.53 | M 3.13
A13: W 3.42 | E 4.66 | M 3.69 | C 3.71 | N 3.98 | F 3.12 | R 3.81 | Q 4.4 | V 3.69 | D 4.47 | G 4.03 | K 3.53 | T 4 | P 4.14 | S 3.88 | I 3.28 | H 4.02 | L 3.44 | Y 3.22
P9: K 3.62 | M 3.3 | A 3.59 | R 3.69 | S 4.17 | E 4.16 | N 3.82 | G 4.13 | T 4.02 | F 2.74 | W 3.23 | L 3.26 | H 3.52 | V 3.62 | D 4.43 | C 3.17 | Q 3.8 | Y 3.35 | I 2.7
D12: L 2.87 | P 3.34 | H 3.34 | R 3.33 | A 3.4 | N 3.06 | I 3.08 | G 3.54 | T 3.31 | Q 3.46 | V 2.94 | K 3 | M 2.7 | W 2.77 | S 3.46 | F 2.69 | C 2.66 | Y 3.19 | E 3.61
G11: H 3.62 | K 3.68 | A 3.61 | N 3.81 | P 3.93 | E 4.72 | R 3.67 | C 3.23 | Y 3.48 | I 3.59 | D 4.4 | M 4.02 | L 3.9 | Q 3.91 | S 4.09 | W 2.91 | V 3.46 | T 3.74 | F 3.61
T22: Y 2.94 | V 3.8 | H 4.06 | R 3.57 | D 3.76 | M 3.47 | N 4.01 | P 3.56 | S 3.91 | Q 4.15 | F 3.42 | W 3 | C 3.65 | I 3.84 | L 3.72 | K 4.07 | E 4.86 | A 3.92 | G 4.05
Y8: R 4.65 | T 4.45 | S 3.94 | V 4.55 | W 4.24
F14: D 4.16 | W 3.94 | P 4.38 | Y 4.09 | M 3.85 | R 3.64 | L 4.1 | G 5.08 | K 4.12 | C 4.16 | H 3.99 | Q 4.44 | I 4.49 | A 4.21 | N 3.8 | E 5 | V 4.28 | T 4.75 | S 4.64
S10: L 3.43 | V 3.73 | G 4.35 | K 3.71 | I 3.76 | E 4.63 | P 4.23 | H 3.65 | M 3.43 | R 3.4 | T 3.68 | C 3.49 | N 3.95 | F 3.3 | W 3.35 | D 4.32 | Q 4.08 | Y 3.1 | A 3.76
D19: F 2.39 | Y 2.62 | N 3.2 | G 3.79 | T 3.25 | K 3.7 | H 3.12 | S 3.4 | I 3.03 | P 3.4 | M 2.95 | R 3.06 | A 2.88 | C 2.85 | W 3.03 | E 4.15 | Q 3.75 | V 2.69 | L 3.14
